Read-outs that look alike come from different tables or passages of the source. Where no end group is shown, it is not given here.
Tests used:
[1] = target: rhesus melanocortin-4 receptor protein (rhesus monkey (Macaca mulatta))
human MC5 receptor [2] = target: T1, human MC5 receptor (human, UniProt P33032 1-325)
T1 construct: whole, on cells; It was tested as crude membranes prepared from cells expressing the receptor; also called hMC-5R

human MC4 receptor [3] = target: T2, human MC4 receptor (human, UniProt P32245 1-332)
T2 construct: whole, on cells; It was tested as crude membranes prepared from cells expressing the receptor; also called hMC-4R
T2 sequence (P32245 whole entry): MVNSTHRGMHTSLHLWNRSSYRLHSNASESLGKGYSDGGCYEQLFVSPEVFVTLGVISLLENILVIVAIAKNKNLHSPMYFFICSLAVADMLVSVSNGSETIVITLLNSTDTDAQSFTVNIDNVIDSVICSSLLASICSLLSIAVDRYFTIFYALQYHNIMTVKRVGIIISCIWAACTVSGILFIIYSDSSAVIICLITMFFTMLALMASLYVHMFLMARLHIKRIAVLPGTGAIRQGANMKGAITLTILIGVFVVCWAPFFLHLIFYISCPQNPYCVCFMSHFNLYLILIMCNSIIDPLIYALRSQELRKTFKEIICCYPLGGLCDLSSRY

human MC3 receptor [4] = target: T3, human MC3 receptor (human, UniProt P41968 1-323)
T3 construct: whole, on cells; It was tested as crude membranes prepared from cells expressing the receptor; also called hMC-3R
T3 sequence (P41968 whole entry): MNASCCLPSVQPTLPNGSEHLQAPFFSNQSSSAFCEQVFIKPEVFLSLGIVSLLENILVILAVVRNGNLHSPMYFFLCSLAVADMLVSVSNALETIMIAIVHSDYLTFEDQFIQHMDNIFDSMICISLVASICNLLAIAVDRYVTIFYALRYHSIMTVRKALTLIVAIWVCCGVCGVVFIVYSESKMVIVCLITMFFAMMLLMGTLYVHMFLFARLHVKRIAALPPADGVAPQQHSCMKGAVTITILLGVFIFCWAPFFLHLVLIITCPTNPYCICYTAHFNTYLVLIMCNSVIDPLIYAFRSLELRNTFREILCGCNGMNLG

human MC3 receptor [5] = target: T3, human MC3 receptor; remark: listed apart in the source
Method: (§1) Reactions were incubated for 1 hour without shaking and then filtered through 96-well filter plates (Packard corp.). Filters were washed three times with TNE buffer (50 mM Tris pH 7.4, 5 mM EDTA, 150 mM NaCl), dried and counted using Microscint-20 in a Topcount scintillation counter (Packard).
(§2) Membranes prepared from rhesus MC-4R transfected cells were evaluated alongside membranes prepared from human MC-4R, MC-4R, and MC-5R expressing cells.

[6] = target: T4, rhesus melanocortin-4 receptor protein (rhesus monkey (Macaca mulatta), UniProt Q8HXX3 1-332 (cynomolgus entry))
T4 construct: This is the full-length 332 amino acid receptor encoded by pVE3099; also called rhMC-4R; rhesus MC-4R
T4 sequence (Q8HXX3 whole entry R167G): as the sequence (P32245 whole entry) above, with T11A, Y21H, A114T, I296V counted along it
Method: as §1, §2

human MC5 receptor [7] = target: T1, human MC5 receptor; remark: listed apart in the source
Method: as §1, §2

human MC4 receptor [8] = target: T2, human MC4 receptor; remark: listed apart in the source
Method: as §1, §2

rhesus melanocortin-4 receptor protein (rhesus monkey (Macaca mulatta)), sequence (Q8HXX3 whole entry R167G): as the sequence (P32245 whole entry) above, with T11A, Y21H, A114T, I296V counted along it
T1 sequence (P33032 whole entry): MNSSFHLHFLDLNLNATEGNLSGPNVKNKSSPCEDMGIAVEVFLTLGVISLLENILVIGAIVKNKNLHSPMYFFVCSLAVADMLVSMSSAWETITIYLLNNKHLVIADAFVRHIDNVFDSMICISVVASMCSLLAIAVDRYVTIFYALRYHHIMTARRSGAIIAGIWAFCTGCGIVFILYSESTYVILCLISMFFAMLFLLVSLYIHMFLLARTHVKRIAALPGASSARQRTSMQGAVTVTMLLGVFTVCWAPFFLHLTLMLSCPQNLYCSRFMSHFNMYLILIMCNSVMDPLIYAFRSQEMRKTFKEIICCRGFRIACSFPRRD

Molecule | IC50 [1] | IC50 (human MC5 receptor [2]) | IC50 (human MC4 receptor [3]) | IC50 (human MC3 receptor [4]) | IC50 (human MC3 receptor [5]) | IC50 [6] | IC50 (human MC5 receptor [7]) | IC50 (human MC4 receptor [8])
SYSMEHFRWGKPVGKKRRPVKVYPNGAEDESAEAFPLEF (peptide, UniProt P01189 138-176, looked up, domain: ACTH1-39; The numbers 1-39 count on the ACTH peptide, not on the precursor) [ACTH1-39] |  |  |  |  | 6 nM | 1.3 nM | 0.4 nM | 6 nM
DEGPYRMEHFRWGSPPKD (peptide, UniProt P01189 217-234, looked up, domain: beta MSH; The peptide is only a part of it; also called β-MSH) [Beta MSH] |  |  |  |  | 23 nM | 23 nM | 166 nM | 
SYSMEHFRWGKPV (peptide, UniProt P01189 138-150, looked up, domain: alpha MSH; The peptide is only a part of it; also called α-MSH; α-melanocyte stimulating hormone) [Alpha MSH] |  |  |  |  |  | 27 nM |  | 

Results, then the molecule that gave them:

IC50 [1] | IC50 (human MC5 receptor [2]) | IC50 (human MC4 receptor [3]) | IC50 (human MC3 receptor [4]) | IC50 (human MC3 receptor [5]) | IC50 [6] | IC50 (human MC5 receptor [7]) | IC50 (human MC4 receptor [8]) | Molecule
0.1 nM | 0.9 nM | 0.1 nM |  |  |  |  |  | MTII (peptide)
1.3 nM | 0.4 nM | 0.6 nM | 0.6 nM |  |  |  |  | NDP-alpha-MSH (peptide)
0.2 nM | 0.1 nM | 0.1 nM | 0.3 nM |  |  |  |  | SHU-9119 (peptide)
 |  |  |  |  | 211 nM |  |  | YVMGHFRWDRF (peptide, UniProt P01189 77-87, looked up, ends and bridges not checked, domain: gamma MSH; The peptide is only a part of it; also called γ-MSH) [Gamma MSH]

Reference: US20030166009A1 (MERCK, published 2003)
